Measurements from patent publication US20220195008A1 (US Dept. of Health and Human Services, published 2022).

What was measured:
[1] = biological target: MAGE-A12:170-178 in the context of HLA-Cw7 (subtype not stated at that place) (human); assay: cell-based or functional assay
[2] = biological target: MAGE-A3 168-176 peptide (…) in the context of HLA-A*01 (human); assay: cell-based or functional assay

Row | Binder | minimum peptide concentration for recognition, relative to TCR 502 [1] | minimum peptide concentration for recognition, relative to TCR A10 [2]
1 | anti-MAGE-A12 TCR FM8 (TCR, V domains shown) V domain 1: QTVTQSQPEMSVQEAETVTLSCTYDTSESDYYLFWYKQPPSRQMILVIRQEAYKQQNATENRFSVNFQKAAKSFSLKISDSQLGDAAMYFCAYRSAQGGSEKLVFGKGTKLTVNP V domain 2: ETGVTQTPRHLVMGMTNKKSLKCEQHLGHNAMYWYKQSAKKPLELMFVYSLEERVENNSVPSRFSPECPNSSHLFLHLHTLQPEDSALYLCASSQTTYYNEQFFGPGTRLTVLE | 100 fold (higher than for TCR 502) | 
2 | anti-MAGE-A3 TCR 13-18 (TCR, V domains shown) V domain 1: QKEVEQDPGPLSVPEGAIVSLNCTYSNSAFQYFMWYRQYSRKGPELLMYTYSSGNKEDGRFTAQVDKSSKYISLFIRDSQPSDSATYLCAMRGAQKLVFGQGTRLTINP V domain 2: DAMVIQNPRYQVTQFGKPVTLSCSQTLNHNVMYWYQQKSSQAPKLLFHYYDKDFNNEADTPDNFQSRRPNTSFCFLDIRSPGLGDAAMYLCATSWDRGYEQYFGPGTRLTVTE |  | 10 fold (higher than for TCR A10)
